Test results as given in patent publication US20200390859A1.

Target: mouse FGFR4/β-klotho complex co-expressed in rat L6 myoblast cells (mouse) (UniProt Q03142)
Assay: cell-based or functional assay

Chain of mouse FGFR4/β-klotho complex co-expressed in rat L6 myoblast cells (mouse) (Q03142 17-799, chain 1 of 2): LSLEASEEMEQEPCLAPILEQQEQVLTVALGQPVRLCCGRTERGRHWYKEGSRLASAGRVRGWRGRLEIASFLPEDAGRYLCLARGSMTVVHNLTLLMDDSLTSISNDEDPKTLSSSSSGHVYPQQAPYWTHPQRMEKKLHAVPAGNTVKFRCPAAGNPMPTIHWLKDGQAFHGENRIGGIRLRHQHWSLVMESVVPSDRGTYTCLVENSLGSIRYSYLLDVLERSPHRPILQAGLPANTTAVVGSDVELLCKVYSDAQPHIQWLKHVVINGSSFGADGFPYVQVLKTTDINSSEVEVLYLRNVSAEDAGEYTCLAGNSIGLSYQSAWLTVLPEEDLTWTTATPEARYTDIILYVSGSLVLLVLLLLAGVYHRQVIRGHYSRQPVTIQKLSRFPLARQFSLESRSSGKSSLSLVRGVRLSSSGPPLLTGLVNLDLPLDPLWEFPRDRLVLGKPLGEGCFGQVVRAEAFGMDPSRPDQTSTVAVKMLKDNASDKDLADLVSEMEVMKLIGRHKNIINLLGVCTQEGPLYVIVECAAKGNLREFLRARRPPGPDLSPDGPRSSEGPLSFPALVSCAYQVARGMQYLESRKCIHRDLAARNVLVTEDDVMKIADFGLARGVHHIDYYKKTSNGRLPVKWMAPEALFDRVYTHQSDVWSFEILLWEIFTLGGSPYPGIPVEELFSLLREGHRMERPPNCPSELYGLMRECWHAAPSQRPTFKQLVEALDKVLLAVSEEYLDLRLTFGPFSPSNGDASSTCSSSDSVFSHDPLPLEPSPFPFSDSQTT
Chain of mouse FGFR4/β-klotho complex co-expressed in rat L6 myoblast cells (mouse) (Q99N32 whole entry, chain 2 of 2, further chain): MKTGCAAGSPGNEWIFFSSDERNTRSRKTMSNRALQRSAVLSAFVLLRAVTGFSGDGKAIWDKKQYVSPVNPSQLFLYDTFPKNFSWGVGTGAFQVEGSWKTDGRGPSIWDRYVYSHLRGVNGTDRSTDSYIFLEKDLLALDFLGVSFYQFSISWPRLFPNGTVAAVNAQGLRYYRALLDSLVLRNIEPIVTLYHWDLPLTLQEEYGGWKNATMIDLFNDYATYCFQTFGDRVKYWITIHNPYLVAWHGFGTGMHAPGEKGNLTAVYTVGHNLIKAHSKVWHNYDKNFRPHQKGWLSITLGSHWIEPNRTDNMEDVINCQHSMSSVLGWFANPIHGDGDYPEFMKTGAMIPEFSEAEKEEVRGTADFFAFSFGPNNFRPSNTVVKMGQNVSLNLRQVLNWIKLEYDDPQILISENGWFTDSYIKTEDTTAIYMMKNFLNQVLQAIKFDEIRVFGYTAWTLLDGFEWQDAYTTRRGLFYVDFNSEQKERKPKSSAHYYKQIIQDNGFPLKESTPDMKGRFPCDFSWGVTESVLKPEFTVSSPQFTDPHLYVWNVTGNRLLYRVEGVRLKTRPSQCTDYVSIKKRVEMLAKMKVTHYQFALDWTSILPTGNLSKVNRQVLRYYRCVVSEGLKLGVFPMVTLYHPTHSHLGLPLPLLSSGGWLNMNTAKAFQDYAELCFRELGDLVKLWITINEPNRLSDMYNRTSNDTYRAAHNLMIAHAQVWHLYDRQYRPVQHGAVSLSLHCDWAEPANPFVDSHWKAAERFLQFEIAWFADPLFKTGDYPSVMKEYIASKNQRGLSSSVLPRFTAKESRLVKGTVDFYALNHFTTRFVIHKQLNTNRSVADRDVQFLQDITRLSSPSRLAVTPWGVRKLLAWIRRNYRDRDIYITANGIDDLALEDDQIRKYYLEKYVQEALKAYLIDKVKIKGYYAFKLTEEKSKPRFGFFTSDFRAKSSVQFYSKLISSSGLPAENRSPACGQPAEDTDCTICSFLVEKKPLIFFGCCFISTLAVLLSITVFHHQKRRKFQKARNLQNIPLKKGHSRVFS

EC50 (pM), ELK1 luciferase reporter in L6 cells transfected with mouse FGFR4 and β-klotho: 52.5 pM
Emax (fold potentiation), ELK1 luciferase reporter in L6 cells transfected with mouse FGFR4 and β-klotho (fold potentiation): 1.82
Substance: FGF19 (human fibroblast growth factor 19, wild type) (from UniProt O95750 25-216) (ligand)
